According to US20120058906A1 (published 2012):
One block for each binder: values may come before it.

Columns and labels:
[1] = biological target: T1, rHuman Notch-1/Fc Chimera, CF (R&D Systems Cat#3647-TK) (human, UniProt P46531 19-526); assay: ECL (MSD Multi-Spot) binding, antigen spotted on plate; Fab 5 nM
T1 construct: Bought Fc chimera; Fc part of the bought chimera not given

[2] = biological target: T2, rHuman EGF R/Fc Chimera, CF (R&D Systems Cat#344-ER) (human, UniProt P00533 25-645); assay: as above
T2 construct: Bought Fc chimera; also called epidermal growth factor receptor; Fc part of the bought chimera not given

[3] = biological target: T3, rHuman ErbB2/Fc Chimera, CF (R&D Systems Cat#1129-ER) (human, UniProt P04626 23-652); assay: as above
T3 construct: Bought Fc chimera; also called human epidermal growth factor 2 receptor; HER2/neu; Fc part of the bought chimera not given

[4] = biological target: T4, rHuman CD44/Fc Chimera, CF (R&D Systems Cat#3660-CD) (human, UniProt P16070 21-220); assay: as above
T4 construct: Bought Fc chimera; Fc part of the bought chimera not given

[5] = biological target: T5, rHuman P-Cadherin/Fc Chimera, CF (R&D Systems Cat#861-PC) (human, UniProt P22223 108-654); assay: as above
T5 construct: Bought Fc chimera; Fc part of the bought chimera not given

[6] = biological target: T6, rHuman IGF-1 sR, CF (R&D Systems Cat#391-GR) (human, UniProt P08069 31-932); assay: as above
T6 construct: Bought soluble receptor; also called insulin-like growth factor-1 soluble receptor; IGF-R1

[7] = biological target: T7, rHuman HGF R/c-MET/Fc Chimera, CF (R&D Systems Cat#358-MT/CF) (human, UniProt P08581 25-932); assay: as above
T7 construct: Bought Fc chimera; also called HGF R/Fc; hepatocyte growth factor receptor; Fc part of the bought chimera not given

[8] = biological target: T8, Recombinant Human DLL4 (R&D Systems Cat#1506-D4/CF) (human, UniProt Q9NR61 27-524); assay: as above
T8 construct: Bought recombinant protein; also called delta-like protein 4

[9] = biological target: T9, rHuman Erythropoietin R/Fc Chimera, CF (R&D Systems Cat#963-ER) (human, UniProt P19235 25-250); assay: as above
T9 construct: Bought Fc chimera; also called EPO R/Fc; erythropoietin receptor; Fc part of the bought chimera not given
T9 sequence: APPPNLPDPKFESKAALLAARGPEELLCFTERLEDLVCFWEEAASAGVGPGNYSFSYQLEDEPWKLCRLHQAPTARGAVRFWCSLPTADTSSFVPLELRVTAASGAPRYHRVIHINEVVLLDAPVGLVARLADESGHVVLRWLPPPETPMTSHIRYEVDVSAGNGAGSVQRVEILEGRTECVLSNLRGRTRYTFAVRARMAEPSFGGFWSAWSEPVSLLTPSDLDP

[10] = biological target: T10, rHuman Notch-1/Fc Chimera, CF (R&D Systems Cat#3647-TK) (human, UniProt P46531 19-526); assay: ECL (MSD multi-spot), antigen spotted on plate; Fab 11 nM; blank spot 212
T10 construct: Bought reagent; Fc part of the bought chimera not given

[11] = biological target: T11, rHuman P-Cadherin/Fc Chimera, CF (R&D Systems Cat#861-PC) (human, UniProt P22223 108-654); assay: as above
T11 construct: Bought reagent; also called CDH3; Fc part of the bought chimera not given

[12] = biological target: T12, Recombinant Human DLL4 (R&D Systems Cat#1506-D4/CF) (human, UniProt Q9NR61 27-524); assay: as above
T12 construct: Bought reagent; also called delta-like protein 4

[13] = biological target: T13, rHuman ErbB2/Fc Chimera, CF (R&D Systems Cat#1129-ER) (human, UniProt P04626 23-652); assay: as above
T13 construct: Bought reagent; also called HER2/neu; human epidermal growth factor 2 receptor; Fc part of the bought chimera not given

[14] = biological target: T14, rHuman EGF R/Fc Chimera, CF (R&D Systems Cat#344-ER) (human, UniProt P00533 25-645); assay: as above
T14 construct: Bought reagent; also called epidermal growth factor receptor; Fc part of the bought chimera not given

[15] = biological target: T15, rHuman Erythropoietin R/Fc Chimera, CF (R&D Systems Cat#963-ER) (human, UniProt P19235 25-250); assay: as above
T15 construct: Bought reagent; also called EPO R/Fc; Epo R; Fc part of the bought chimera not given
T15 sequence: T9 sequence

[16] = biological target: T16, rHuman CD44/Fc Chimera, CF (R&D Systems Cat#3660-CD) (human, UniProt P16070 21-220); assay: as above
T16 construct: Bought reagent; Fc part of the bought chimera not given

[17] = biological target: T17, rHuman IGF-1 sR (IGF-1 sR), CF (R&D Systems Cat#391-GR) (human, UniProt P08069 31-932); assay: as above
T17 construct: Bought soluble receptor; also called insulin-like growth factor-1 soluble receptor; IGF-R1

[18] = biological target: T18, rHuman HGF R/c-MET/Fc Chimera, CF (R&D Systems Cat#358-MT/CF) (human, UniProt P08581 25-932); assay: as above
T18 construct: Bought reagent; also called HGF R/Fc; hepatocyte growth factor receptor; Fc part of the bought chimera not given
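Further: blank spot per well as comparator with Hit at signal to blank ratio of 4 or more.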

- ECL signal [1]: 383
- ECL signal [2]: 311
- ECL signal [3]: 315
- ECL signal [4]: 413
- ECL signal [5]: 437
- ECL signal [6]: 320
- ECL signal [7]: 323
- ECL signal [8]: 84900
- ECL signal [9]: 377
B1: Fab VH1-46_IGHD6-6*01_IGHJ1*01_S102A_S103P_S104F_H111Y & L6_IGKJ1*01 (Fab, V domains shown)
VH: QVQLVQSGAEVKKPGASVKVSCKASGYTFTSYYMHWVRQAPGQGLEWMGIINPSGGSTSYAQKFQGRVTMTRDTSTSTVYMELSSLRSEDTAVYYCAREEYAPFSAEYFQYWGQGTLVTVSS
VL: not shown
notes: Fab made in E. coli; The heavy chain also carries the CH1 with Flag and His tags of Plasmid A, and the light chain the kappa constant region of Plasmid C

- ECL signal [10]: 404
- ECL signal [11]: 270
- ECL signal [12]: 254
- ECL signal [13]: 216
- ECL signal [14]: 201
- ECL signal [15]: 1820
- ECL signal [16]: 296
- ECL signal [17]: 289
- ECL signal [18]: 268
B2: Fab VH1-46_IGHD3-10*01_IGHJ4*01 & B3_IGKJ1*01 (Fab, V domains shown)
VH: QVQLVQSGAEVKKPGASVKVSCKASGYTFTSYYMHWVRQAPGQGLEWMGIINPSGGSTSYAQKFQGRVTMTRDTSTSTVYMELSSLRSEDTAVYYCAREYYYGSGSYYNDYFDYWGQGTLVTVSS
VL: not shown
notes: also called IGHV1-46*01
